Consider 5 molecules from patent US20200079850A1 (SUTRO BIOPHARMA, published 2020).

In assay [1] the target is T1, human PD-1 expressed on the surface of CHO cells (human, UniProt Q15116 25-288).
T1 construct: I took it as human PD-1; also called CHO-PD1
Nature of the assay: flow cytometry, CHO-PD1 cells. Here is the method: CHO-k cells stably expressing PD-1 or LAG3 (human or cynomolgus) on the cell surface were used to assess binding affinity of anti-PD-1/LAG3 bispecific antibody constructs. Cells were seeded at 100,000 cells/well in 100 μL of FACS buffer (1×PBS, 0.5% BSA, 0.1% sodium azide) in 96-well polypropylene plates. The cells were centrifuged at 1.5K rpm and resuspended with test antibodies diluted in FACS buffer and incubated on ice for 1 hour. The cells were washed twice with FACS buffer and incubated on ice for 30 mins with R-Phycoerythrin-AffiniPure F(ab′)2 Fragment Goat Anti-Human IgG (H+L) secondary detection antibody (1:200 dilution, Jackson ImmunoResearch Laboratories, West Grove, Pa.). The cells were washed twice with FACS buffer, fixed in 4% paraformaldehyde in PBS (Santa Cruz Biotechnology; Dallas, Tex.) for 20 mins on ice in the dark, washed twice with FACS buffer, and analyzed using the BD LSR II Flow Cytometer (BD Biosciences; San Jose, Calif.). Data were analyzed using FlowJo (FlowJo, LLC; Ashland, Oreg.) to determine mean fluorescence intensities. Binding constants were calculated using the statistical software, GraphPad Prism (GraphPad Software; La Jolla, Calif.) using the nonlinear regression equation, one site—specific binding with Hill slope. The secondary antibody by itself was used as a control.

Assay [2] concerns the target T2, recombinant human LAG3 protein (rhLAG3), HIS-tagged (ACRO) or biotinylated (R&D Cat #2319-C3) (human, UniProt P18627 23-450, biotinylated in part of the assays).
T2 sequence: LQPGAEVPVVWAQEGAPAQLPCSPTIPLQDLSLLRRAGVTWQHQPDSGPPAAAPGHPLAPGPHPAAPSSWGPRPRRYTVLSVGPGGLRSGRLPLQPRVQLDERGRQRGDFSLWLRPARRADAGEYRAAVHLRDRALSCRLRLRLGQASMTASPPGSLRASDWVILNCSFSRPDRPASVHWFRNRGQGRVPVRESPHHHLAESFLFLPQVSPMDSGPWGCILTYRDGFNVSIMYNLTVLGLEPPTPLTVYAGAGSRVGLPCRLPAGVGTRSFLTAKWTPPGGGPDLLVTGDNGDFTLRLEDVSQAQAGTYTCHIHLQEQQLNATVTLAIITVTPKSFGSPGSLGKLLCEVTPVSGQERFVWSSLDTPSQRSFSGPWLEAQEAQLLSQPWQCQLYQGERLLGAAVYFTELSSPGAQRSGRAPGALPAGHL
The assay can be described thus: flow cytometry competition, rhLAG3 binding to Daudi cells; competitor MHCII. The procedure: DAUDI cells express high levels of Major Histocompatibility Class II (MHCII) molecules, a natural ligand for LAG3, on the cell surface. DAUDI cells were used to screen for antibodies that inhibit binding of HIS-tagged (ACRO) or biotinylated recombinant human LAG3 protein (rhLAG3) to MHCII expressed on the cell surface.
DAUDI cells were cultured in RPMI w/10% FCS Pen/Strep and Gln and split every 3-4 days at 10^5 cells/ml. Cells were washed 2× with FACS buffer (PBS w/2% FCS), […] at a final concentration of 1×10⁶ cells/ml and seeded at 100 μl per well on 96 well polypropylene plates. Plates were spun at 1500 rpm for 5 minutes and cell pellets were suspended in 50 μl FACS buffer containing 8 point 1:3 dilutions (2× concentrated) of anti-LAG3 antibody variants, starting from high concentration of −600 nM. 50 μl FACS buffer containing 10-20 μg/ml of the HIS-tagged rhLAG3 protein or 40 μg/ml of the biotinylated rhLAG3 protein were then added to the cells. Cell were then incubated in ice for 1 hr, washed with FACS buffer and incubated for 1 hr in ice with 50 μl FACS buffer containing 2 μg/ml R-Phycoerythrin-conjugated Streptavidin (eBiosciences) or 1 μg/ml R-Phycoerythrin-conjugated anti-HIS IgG (Abcam). Cell were washed 2× with FACS buffer and fixed for 10 minutes in 200 μl PBS w/2% PFA prior to acquisition.

Assay [3] concerns the target T3, human LAG3-Fc (R&D Systems #2319-L3) (human, UniProt P18627 23-450).
T3 construct: Bought protein; also called Human LAG3 (Biacore)
T3 sequence: T2 sequence
Nature of the assay: SPR (Biacore), antibody captured by anti-Flag, LAG3-Fc as analyte, 25 C. The procedure: Anti-Flag M2 IgG (Sigma-Aldrich # F9291) was immobilized onto a CMS chip (GE Life Sciences) using amine coupling chemistry (from Amine Coupling Kit, GE Life Sciences). The immobilization steps were carried out at a flow rate of 25 μL/min in 1×HBS-EP+ buffer (GE Life Sciences; 10×Stock diluted before use). The sensor surfaces were activated for 7 min with a mixture of NHS (0.05 M) and EDC (0.2 M). The Anti-Flag M2 IgG was injected over all 4 flow cells at a concentration of 25 μg/mL in 10 mM sodium acetate, pH 4.5, for 7 min. Ethanolamine (1 M, pH 8.5) was injected for 7 min to block any remaining activated groups. An average of 12,000 response units (RU) of capture antibody was immobilized on each flow cell.
Off-rate and kinetic binding experiments were performed at 25° C. using 1×HBS-EP+buffer. Test and control antibodies were injected over the Anti-Flag surface at concentrations of 5-10 μg/mL for 12 seconds at a flow rate of 10 μL/min on flow cells 2, 3 and 4, followed by a buffer wash for 30 seconds at the same flow rate. Kinetic characterization of antibody samples was carried out with a single concentration of antigen (for off-rate ranking) or a dilution series of antigen (for kinetic characterization) and 1 injection of 0 nM antigen. After capturing ligand (antibody) on the anti-Flag surface, the analyte (human LAG3-Fc, R&D Systems #2319-L3; or cynomolgus LAG3-Fc, accession # NC 022282.1) was bound at 50, 25, 12.5, 6.25, and 0 nM for 180 seconds, followed by a 600 second dissociation phase at a flow rate of 50 μl/min Between each ligand capture and analyte binding cycle, regeneration was carried out using 2 injections of 10 mM glycine pH 2.0 for 30 seconds at 30 μL/min, followed by a 30 second buffer wash step.
The data were fit with the Biacore T200 Evaluation software, using a 1:1 Langmuir binding model. KD (affinity, nM) was determined as a ratio of the kinetic rate constants calculated from the fits of the association and dissociation phases.

The target of assay [4] is T4, human LAG3 expressed on the cell surface (CHO-LAG3, 293T-LAG3 cells) (human, UniProt P18627 23-525).
T4 construct: Stably transfected CHO or HEK293T cells; also called Human LAG3 (CHO); Human LAG3 (293T)
T4 sequence: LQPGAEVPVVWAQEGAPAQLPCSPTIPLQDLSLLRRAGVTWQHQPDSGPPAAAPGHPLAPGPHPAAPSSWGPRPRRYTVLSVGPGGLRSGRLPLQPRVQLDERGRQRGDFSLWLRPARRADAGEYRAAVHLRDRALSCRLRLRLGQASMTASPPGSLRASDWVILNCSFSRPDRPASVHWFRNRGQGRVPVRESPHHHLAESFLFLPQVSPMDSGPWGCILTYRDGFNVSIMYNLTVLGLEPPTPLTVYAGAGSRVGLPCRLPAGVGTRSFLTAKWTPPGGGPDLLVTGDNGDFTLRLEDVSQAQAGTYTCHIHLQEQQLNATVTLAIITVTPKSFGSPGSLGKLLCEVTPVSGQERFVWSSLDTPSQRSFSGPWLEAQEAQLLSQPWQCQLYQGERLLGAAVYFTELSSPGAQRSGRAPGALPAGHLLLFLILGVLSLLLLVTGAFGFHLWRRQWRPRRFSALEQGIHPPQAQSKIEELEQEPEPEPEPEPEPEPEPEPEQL
The assay can be described thus: flow cytometry, CHO cells expressing human LAG3. The procedure:
LAG3 antibody variants were tested in a fluorescence-activated cell sorting (FACS) cell-binding assay. Chinese Hamster Ovary (CHO) cells or HEK293T cells stably expressing the human target molecule LAG3 on the cell surface (CHO-LAG3, 293T-LAG3) were used to screen for cell binders by flow cytometry. Parental CHO or 293T cells were used as a negative control to determine background-binding levels. Cells were cultured in RPMI with 10% FCS Penicillin/Streptomycin (or Pen/Strep) and glutamine (or Gln) and split every 3-4 days at 10⁵ cells/ml.
A mix of parental CHO cells and CHO-LAG3 cells (or 293T and 293T-LAG3 cells) was prepared as follows: Parental CHO cells were washed 2× in PBS then incubated in PBS containing 1 nM CellTrace™ Oregon Green488® (Life Technologies) at 37° C. for 30 minutes. […] Parental CHO cells and CHO-LAG3 cells were then mixed to obtain a 1:1 cell suspension and seeded at 100 μl per well on 96 well polypropylene plates. Plates were spun at 1500 rpm for 5 minutes and cell pellets were suspended in 50 μl FACS buffer containing 6-12 point dilutions of anti-LAG3 variants starting from concentrations of ˜100-200 nM antibody, dispensed using BioMekFX (Beckman Coulter). Cells were then incubated on ice for 1 hr, washed with FACS buffer and incubated for 1 hr on ice with 50 μl FACS buffer containing 2.5 μg/ml R-Phycoerythrin-conjugated Goat Anti-Human IgG (Jackson ImmunoResearch) or AF647-conjugated Goat Anti-mouse IgG (Life Technologies) dispensed using BioMekFX (Beckman Coulter). Cells were then washed 2× with FACS buffer and fixed for 10 minutes in 200 μl PBS with 2% PFA prior to fluorescence detection. Samples were acquired using a Beckton Dickinson LSRII FACS. Mean Fluorescence Intensity of LAG3 antibody binding was analyzed using Tree Star, Inc. FlowJo® software.
For orientation: In flow cytometry, cells or beads pass a laser one at a time.

Changes are numbered by the printed parent chain.

T1 sequence (Q15116 25-288 limits assumed): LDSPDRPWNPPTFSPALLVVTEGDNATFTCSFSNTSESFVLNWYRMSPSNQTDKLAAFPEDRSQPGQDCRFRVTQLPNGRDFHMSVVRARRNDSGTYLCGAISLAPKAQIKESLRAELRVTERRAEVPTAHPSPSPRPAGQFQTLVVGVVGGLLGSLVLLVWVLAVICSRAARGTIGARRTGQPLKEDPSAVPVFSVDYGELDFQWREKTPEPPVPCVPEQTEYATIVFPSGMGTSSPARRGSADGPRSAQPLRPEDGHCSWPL

B1: Construct G: aPD1 1353-G10 Fab_K × aLAG3 1449-G09.2 scFvFc_H (three-chain Fab x scFvFc) (bispecific antibody, human IgG1, lambda)
heavy: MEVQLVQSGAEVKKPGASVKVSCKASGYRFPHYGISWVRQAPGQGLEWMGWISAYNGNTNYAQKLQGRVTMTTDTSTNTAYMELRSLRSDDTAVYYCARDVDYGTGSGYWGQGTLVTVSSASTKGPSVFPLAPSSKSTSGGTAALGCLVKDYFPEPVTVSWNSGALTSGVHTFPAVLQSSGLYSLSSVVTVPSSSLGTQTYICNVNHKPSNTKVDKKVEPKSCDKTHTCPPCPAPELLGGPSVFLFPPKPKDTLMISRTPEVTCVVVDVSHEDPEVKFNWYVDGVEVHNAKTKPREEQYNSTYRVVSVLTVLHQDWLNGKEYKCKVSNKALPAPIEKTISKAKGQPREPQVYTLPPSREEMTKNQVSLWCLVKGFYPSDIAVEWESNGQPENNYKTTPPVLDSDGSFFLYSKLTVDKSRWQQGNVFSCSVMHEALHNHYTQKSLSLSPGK
light: MSYELTQPPSVSVSPGQTARITCSGDALPKQYAYWYQQKPGQAPVMVIYKDTERPSGIPERFSGSSSGTKVTLTISGVQAEDEADYYCQSADNSITYRVFGGGTKVTVLGQPKAAPSVTLFPPSSEELQANKATLVCLISDFYPGAVTVAWKADSSPVKAGVETTTPSKQSNNKYAASSYLSLTPEQWKSHRSYSCQVTHEGSTVEKTVAPTECS
scFv: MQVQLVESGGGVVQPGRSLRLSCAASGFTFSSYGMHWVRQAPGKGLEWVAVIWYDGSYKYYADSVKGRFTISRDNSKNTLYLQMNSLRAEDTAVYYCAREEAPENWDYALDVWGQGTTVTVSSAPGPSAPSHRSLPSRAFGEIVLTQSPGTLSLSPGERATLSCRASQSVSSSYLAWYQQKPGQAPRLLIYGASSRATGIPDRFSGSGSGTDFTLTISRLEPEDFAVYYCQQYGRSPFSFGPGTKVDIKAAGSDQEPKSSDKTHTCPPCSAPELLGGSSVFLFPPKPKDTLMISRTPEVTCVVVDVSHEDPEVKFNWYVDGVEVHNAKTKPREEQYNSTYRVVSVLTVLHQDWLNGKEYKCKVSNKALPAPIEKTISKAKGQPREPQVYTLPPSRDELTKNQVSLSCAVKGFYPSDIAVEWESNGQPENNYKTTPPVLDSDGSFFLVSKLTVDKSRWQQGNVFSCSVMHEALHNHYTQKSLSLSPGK
One may read the Kd as the constant that tells how readily two partners part at equilibrium. High values mean weaker binding, low ones tighter binding. As to B1, in assay [1], the Bmax was found to be 6380 and the Kd was 0.8 nM.

B2: Construct H: aPD1 1353-G10 Fab_H × aLAG3 1449-G09.2 scFvFc_K (three-chain Fab x scFvFc) (bispecific antibody, human IgG1, lambda)
heavy: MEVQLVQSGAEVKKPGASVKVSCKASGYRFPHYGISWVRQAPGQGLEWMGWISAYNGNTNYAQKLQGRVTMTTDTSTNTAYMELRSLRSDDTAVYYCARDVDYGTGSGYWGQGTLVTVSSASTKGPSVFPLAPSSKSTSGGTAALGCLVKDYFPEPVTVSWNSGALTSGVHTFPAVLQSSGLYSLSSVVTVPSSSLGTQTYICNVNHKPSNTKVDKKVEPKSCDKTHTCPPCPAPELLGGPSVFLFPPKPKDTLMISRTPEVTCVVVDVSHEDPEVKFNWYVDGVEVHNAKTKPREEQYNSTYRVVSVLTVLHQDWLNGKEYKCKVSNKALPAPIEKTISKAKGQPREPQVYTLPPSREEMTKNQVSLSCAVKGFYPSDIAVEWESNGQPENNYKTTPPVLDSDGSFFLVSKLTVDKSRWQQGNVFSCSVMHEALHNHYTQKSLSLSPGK
light: B1 light
scFv: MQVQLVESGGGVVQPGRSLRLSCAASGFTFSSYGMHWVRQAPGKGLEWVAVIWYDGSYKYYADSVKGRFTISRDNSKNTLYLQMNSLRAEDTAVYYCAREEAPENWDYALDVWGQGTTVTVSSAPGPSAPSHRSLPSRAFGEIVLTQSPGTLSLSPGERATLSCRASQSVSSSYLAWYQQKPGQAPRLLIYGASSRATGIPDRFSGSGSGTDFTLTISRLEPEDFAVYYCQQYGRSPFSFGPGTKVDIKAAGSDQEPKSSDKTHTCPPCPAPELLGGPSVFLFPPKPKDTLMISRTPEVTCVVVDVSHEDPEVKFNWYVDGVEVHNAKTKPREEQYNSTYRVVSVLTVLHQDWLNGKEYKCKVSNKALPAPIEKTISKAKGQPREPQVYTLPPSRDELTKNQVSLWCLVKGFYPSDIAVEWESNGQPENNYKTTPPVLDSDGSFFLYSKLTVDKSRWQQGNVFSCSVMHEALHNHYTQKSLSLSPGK
In assay [1], B2 gave a Bmax of 5460 and a Kd of 0.4 nM.

B3: SRP1449-B03 (scFv, V domains shown)
VH: QVQLVESGGGVVQPGRSLRLSCAASGFTFSSYGMHWVRQAPGKGLEWVAAIWYDASYKYYADSVKGRFTISRDNSKNTLYLQMNSLRAEDTAVYYCAREWAVASWDYALDVWGQGTTVTVSS
VL: EIVLTQSPGTMSLSPGERATLSCRASQSVSSSYLAWYQQKPGQAPRLLIYGASSRATGIPDRFSGSGSGTDFTLTISRLEPEDFAVYYCQQYDRSPLTFGPGTKVDIK
One may read the IC50 as the concentration that inhibits the measured activity by half. By koff is commonly meant a measure of how fast the partners let go of each other. Lower therefore signals a long-lived complex. As a reminder, the kon is the rate constant with which the complex forms. B3: the half-maximal inhibitory concentration (IC50) in assay [2] stood at 1 nM. In assay [3], this molecule displayed a Kd of 0.64 nM, a koff of 0.000302 s⁻¹ and a kon of 472000 M⁻¹ s⁻¹. For the same molecule, the dissociation constant Kd in assay [4] was 1.92 nM.

B4: SRP1449-B07 (scFv, V domains shown)
VH: B3 VH with A50V, A55G, Y57N, A103S, A108G, L109M
VL: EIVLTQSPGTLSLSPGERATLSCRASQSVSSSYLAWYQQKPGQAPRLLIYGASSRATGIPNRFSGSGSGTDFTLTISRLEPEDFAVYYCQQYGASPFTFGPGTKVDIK
Take B4: the IC50 in assay [2] was found to be 1.2 nM. In assay [3], binding was put at a Kd of 0.676 nM, the koff stood at 0.000536 s⁻¹ and the on-rate (kon) came out at 794000 M⁻¹ s⁻¹. The molecule further had a Kd in assay [4] of 1.06 nM.

B5: 421.61.4.5G11 (antibody, V domains shown)
VH: EVQLQQSGAELVRSGASVKLSCTASGFNIKDYYMHWVKQRPEQGLEWIAWIDPENGDTEYAPKFQGRATLTADTSSNTAYLHLSSLTSEDTAVYYCNAPDALDYWGQGTSVTVSS
VL: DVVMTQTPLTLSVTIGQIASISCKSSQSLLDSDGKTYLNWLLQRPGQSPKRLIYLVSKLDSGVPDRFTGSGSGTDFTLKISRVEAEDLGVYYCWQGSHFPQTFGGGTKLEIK
Regarding B5, the IC50 in assay [2] was determined as 64.3 nM. In assay [3], this molecule gave a Kd of 10.3 nM, a koff of 0.000515 s⁻¹ and a kon of 50200 M⁻¹ s⁻¹. For the same molecule, the Kd in assay [4] turned out to be 18 nM.
